Two molecules from patent publication US20160368985A1 (published 2016) can be followed below.

Assay [1] addresses T1, cynomolgus E11 protein (E11 domain of cynomolgus FcRH5), soluble (cynomolgus monkey).
T1 chain: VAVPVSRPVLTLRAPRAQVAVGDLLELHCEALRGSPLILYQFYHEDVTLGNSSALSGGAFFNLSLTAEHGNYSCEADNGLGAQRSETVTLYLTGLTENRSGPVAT
The assay is described as follows: SPR BIACORE T200, IgG capture, monovalent.

The target of assay [2] is T2, human E11 protein (E11 domain of human FcRH5), soluble (human, UniProt Q96RD9 745-850).
T2 construct: Expressed in CHO cells; also called human E11 domain
T2 sequence: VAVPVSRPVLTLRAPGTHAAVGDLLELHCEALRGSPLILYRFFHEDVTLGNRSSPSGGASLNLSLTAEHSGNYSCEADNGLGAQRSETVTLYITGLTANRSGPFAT
Kind of assay: SPR BIACORE T200, IgG capture, monovalent.

B1: 17B1 (antibody, mouse IgG2a, V domains shown)
VH: QVQLQQSGPELVRPGVSVKISCKGSGYTFTHYAMHWVKQSHTKSLEWIGMISSSSGNTNFNQKFMDKATMTVDKSSTTAYLELARLTFGDSAIYYCARWSYYALFDYWGQGTTVTVSS
VL: ENVLTQSPAIMSASPGEKVTMTCSADSSVDYIHWYQQKSNTSPKLWIYDTSKLASGVPGRFSGSGSGNSYSLTISSMEAEDFATYYCFQGSGYPLTFGSGTKLELK
notes: Mouse mAb, Immunization Campaign C; expressed recombinantly as murine IgG2a for SPR
As for B1, the values for the Kd in assay [1] and in assay [2] were 27 nM and 68 nM, respectively.

B2: 15G8 (antibody, mouse IgG2a, V domains shown)
VH: EVQLQQSGPELVKPGASVKMSCKASGYTFTNYVIHWMKQKPGQGLEWIGYISPYNDYTKYNEKFEGKATLTSDKSSNTAYMELSSLTSEDSAVYYCARRDYYGSSDYWGQGTTLTVSS
VL: QIVLTQSPAIMSASPGEKVTMTCSASSSVDYMHWYQQKSGTSPKKWIYDTSKLASGVPARFSGSGSGTSYSLTIGSMEAEDAATYYCQQWSSNPPTFGGGTKLEIK
notes: Mouse mAb, Immunization Campaign C; expressed recombinantly as murine IgG2a for SPR; also called mAb 15G8
On to B2, for which the equilibrium dissociation constant (Kd) in assay [1] was determined as 9.1 nM; in assay [2], 0.5 nM.
